Experiment in all cases: ITC
A general note: Isothermal titration calorimetry measures the heat released or taken up as one component is titrated into another.

The target of series [1] is Jun bZIP R272A;Fos bZIP R158A (human;human, UniProt P05412;P01100 252-315;137-200, R272A|R158A).
The target of series [2] is Jun bZIP R272A;Fos bZIP R157A (human;human, UniProt P05412;P01100 252-315;137-200, R272A|R157A).
Series [3] deals with Jun bZIP R272A;Fos bZIP K153A (human;human, UniProt P05412;P01100 252-315;137-200, R272A|K153A).
The target in series [4] is Jun bZIP R270A;Fos bZIP R146A (human;human, UniProt P05412;P01100 252-315;137-200, R270A|R146A).
In series [5] the target is Jun bZIP K273A;Fos bZIP R143A (human;human, UniProt P05412;P01100 252-315;137-200, K273A|R143A).
The target in series [6] is Jun bZIP R261A;Fos bZIP R157A (human;human, UniProt P05412;P01100 252-315;137-200, R261A|R157A).
Chain of Jun bZIP R261A;Fos bZIP R157A (P05412 252-315 R261A, chain 1 of 2): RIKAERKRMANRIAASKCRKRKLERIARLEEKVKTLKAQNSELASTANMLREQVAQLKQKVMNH
Chain of Jun bZIP R261A;Fos bZIP R157A (P01100 137-200 R157A, chain 2 of 2): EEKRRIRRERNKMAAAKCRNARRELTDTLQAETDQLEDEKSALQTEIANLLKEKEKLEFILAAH

Chain of Jun bZIP R272A;Fos bZIP R158A (P05412 252-315 R272A, chain 1 of 2): as the sequence (P05412 252-315 R261A, chain 1 of 2) above, with A10R, R21A counted along it
Chain of Jun bZIP R272A;Fos bZIP R158A (P01100 137-200 R158A, chain 2 of 2): as the sequence (P01100 137-200 R157A, chain 2 of 2) above, with A21R, R22A counted along it
Chain of Jun bZIP R272A;Fos bZIP R157A (P05412 252-315 R272A, chain 1 of 2): as the sequence (P05412 252-315 R261A, chain 1 of 2) above, with A10R, R21A counted along it
Chain of Jun bZIP R272A;Fos bZIP R157A (P01100 137-200 R157A, chain 2 of 2): as the sequence (P01100 137-200 R157A, chain 2 of 2) above
Chain of Jun bZIP R272A;Fos bZIP K153A (P05412 252-315 R272A, chain 1 of 2): as the sequence (P05412 252-315 R261A, chain 1 of 2) above, with A10R, R21A counted along it
Chain of Jun bZIP R272A;Fos bZIP K153A (P01100 137-200 K153A, chain 2 of 2): as the sequence (P01100 137-200 R157A, chain 2 of 2) above, with K17A, A21R counted along it
Chain of Jun bZIP R270A;Fos bZIP R146A (P05412 252-315 R270A, chain 1 of 2): as the sequence (P05412 252-315 R261A, chain 1 of 2) above, with A10R, R19A counted along it
Chain of Jun bZIP R270A;Fos bZIP R146A (P01100 137-200 R146A, chain 2 of 2): as the sequence (P01100 137-200 R157A, chain 2 of 2) above, with R10A, A21R counted along it
Chain of Jun bZIP K273A;Fos bZIP R143A (P05412 252-315 K273A, chain 1 of 2): as the sequence (P05412 252-315 R261A, chain 1 of 2) above, with A10R, K22A counted along it
Chain of Jun bZIP K273A;Fos bZIP R143A (P01100 137-200 R143A, chain 2 of 2): as the sequence (P01100 137-200 R157A, chain 2 of 2) above, with R7A, A21R counted along it

B1: TRE duplex 15-mer (dsDNA)
DNA 1: CGCGTGACTCACCCC
DNA 2: GGGGTGAGTCACGCG
In general, Kd refers to the concentration at which binding is half-saturated. A high value points to lower affinity. For the molecule B1, the Kd in series [1] was found to be 620 ± 40 nM; in series [2] it was 430 ± 20 nM; in series [3] it was 960 ± 110 nM; in series [4], 1450 ± 130 nM; in series [5] it was 1220 ± 150 nM; in series [6] it was 890 ± 30 nM.
